# From patent publication US20240317834A1, “COMPOSITIONS AND METHODS FOR NEUROLOGICAL DISEASES” (CODA BIOTHERAPEUTICS, INC., priority 2020, published 2024)
# B1: CODA1045: engineered chimeric LGIC receptor, R101W, Y210V in SEQ ID NO: 33 (protein)
# chain: MRCSPGGVWLALAASLLHVSLQGEFQRKLYKELVKNYNPLERPVANDSQPLTVYFSLSLLQIMDVDEKNQVLTTNIWLQMSWTDHYLQWNVSEYPGVKTVWFPDGQIWKPDILLYNSADERFDATFHTNVLVNSSGHCQYLPPGIFKSSCPMDLKNFPMDVQTCKLKFGSWSYGGWSLDLQMQEADISGYIPNGEWDLVGIPGKRSERFVECCKEPYPDVTFTVTMRRRMGYYLIQMYIPSLLIVILSWISFWINMDAAPARVGLGITTVLTMTTQSSGSRASLPKVSYVKAIDIWMAVCLLFVFSALLEYAAVNFVSRQHKELLRFRRKRRHHKSPMLNLFQEDEAGEGRFNFSAYGMGPACLQAKDGISVKGANNSNTTNPPPAPSKSPEEMRKLFIQRAKKIDKISRIGFPMAFLIFNMFYWIIYKIVRREDVHNQ
# modifications: synthetic sequence of chimeric LGIC
# Key:
# rat DRG neurons = experiment: Rheobase shift and evoked action potentials in rat DRG neurons (current clamp); type: cell-based
# Method: Using whole cell manual patch clamp electrophysiology in HEK293 cells, rat DRG neurons and rat hippocampal neurons, the EC50 of the various engineered receptors disclosed herein to Ach and non-native ligands was measured using the Hill equation with peak current measurements from escalating doses of ligand. The rheobase shift was also measured in rat DRG neurons, which reflects the efficacy of the receptors. To calculate the rheobase, first, the amount of current that can produce an action potential was determined. Then the ligand was added, followed by a step wise increase in the current injected up to 700 pA.
# For manual patch clamp experiments, Cells plated on coverslips were visualized at 10× and 40× on an inverted fluorescence microscope (Olympus). Recordings were made with an Axopatch 200B amplifier and Digidata 1550B (Molecular Devices) at RT using 3-6 MOhm glass patch electrodes (Sutter, BF150-86-10). Unless otherwise stated, recordings were made in extracellular solution (ECS) containing: 140 mM sodium chloride, 4 mM potassium chloride, 1 mM magnesium chloride, 2 mM calcium chloride, 10 mM HEPES, and 10 mM D-(+)-glucose (pH=7.3 with sodium hydroxide, osmolarity=305−315 mOsm). An 8-line reservoir (AutoMate Scientific) in combination with an 8-channel zero-dead-volume perfusion pencil (AutoMate Scientific) was used for perfusion. Data was acquired using pClamp software (Molecular Devices). Traces were either analyzed in Clampfit (Molecular Devices) or using custom Python code. Plotting and statistics were performed in GraphPad Prism.
# DRG rheobase experiments were performed in current clamp mode using a potassium-based internal solution containing: 100 mM potassium D-gluconate, 28 mM potassium chloride, 1 mM magnesium chloride hexahydrate, 5 mM magnesium ATP, 10 mM HEPES, and 0.5 mM EGTA (pH=7.2 with potassium hydroxide, osmolarity=290-295 mOsm, calculated liquid junction potential=−13.5 mV). To measure DRG input resistance and rheobase, 500 ms current steps (−200 pA to 700 pA) were applied the membrane in the presence and absence of a compound. No holding current was applied to the membrane for cells included in the final datasets. Data were acquired at 10 kHz, with Bessel filter at 2 kHz and series resistance compensation at 100%. Rheobase was defined as the smallest depolarizing current injection required to cause an action potential to fire in the cell. In a subset of cells, the rheobase was ambiguous, since the action potential appeared to be graded in amplitude. In these cases, a […] of the trace clarified the rheobase. Input resistance was measured from the negative current injections, calculated as the difference in membrane potential at steady state divided by the current injection amplitude and then averaged across the four negative current steps for each recording. Resting membrane potential was measured from the first 100 ms of each sweep, averaged for each recording, and corrected for liquid junction potential. One-way ANOVA with multiple comparisons was used to test for significance of difference in rheobase and input resistance between baseline, drug, and wash conditions.
# Lenti-X 293T cells = experiment: YFP fluorescence quenching anion reporter plate reader assay of engineered receptors stimulated with acetylcholine or a non-native ligand; type: cell-based
# Method in brief: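 Lenti-X 293T cells carrying a YFP anion reporter were transiently transfected with channel DNA and assayed the next day in HEPES-buffered ECS at pH 7.2. Ligand (acetylcholine or non-native ligand) was added in NaI-substituted ECS. Percent quench was the mean of the last 10 s relative to the 15 s pre-addition baseline.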
molecule,measurement,setting,value
B1,"Rheobase Shift; Rat DRG Neurons, +TC-5619 @ EC90",rat DRG neurons; +TC-5619 @ EC90,700 ± 0 pA
same,"Rheobase Shift; Rat DRG Neurons, Baseline","rat DRG neurons; Baseline, no ligand",141 ± 22 pA
same,YFP fluorescence quenching using CNL001,"Lenti-X 293T cells; 1 nM CNL001, first column",0.804%
same,YFP fluorescence quenching using CNL001,"Lenti-X 293T cells; 1 nM CNL001, second column",11.275%
same,YFP fluorescence quenching using TC-5619/Bradanicline,Lenti-X 293T cells; 1 nM brd,−1.431%
same,YFP fluorescence quenching using TC-5619/Bradanicline,Lenti-X 293T cells; 3 nM brd,−14.993%
same,YFP fluorescence quenching using Varenicline,"Lenti-X 293T cells; 3 nM var, first column",6.745
same,YFP fluorescence quenching using Varenicline,"Lenti-X 293T cells; 3 nM var, second column",8.397
same,YFP fluorescence quenching using CNL001,"Lenti-X 293T cells; 10 nM CNL001, first column",15.843%
same,YFP fluorescence quenching using CNL001,"Lenti-X 293T cells; 10 nM CNL001, second column",16.619%
same,YFP fluorescence quenching using TC-5619/Bradanicline,Lenti-X 293T cells; 10 nM brd,−5.52%
same,YFP fluorescence quenching using TC-5619/Bradanicline,Lenti-X 293T cells; 30 nM brd,15.49%
same,YFP fluorescence quenching using Varenicline,"Lenti-X 293T cells; 30 nM var, first column",14.1
same,YFP fluorescence quenching using Varenicline,"Lenti-X 293T cells; 30 nM var, second column",19.095
same,YFP fluorescence quenching using CNL001,"Lenti-X 293T cells; 50 nM CNL001, first column",15.205%
same,YFP fluorescence quenching using CNL001,"Lenti-X 293T cells; 50 nM CNL001, second column",18.771%
same,YFP fluorescence quenching using ABT-126,Lenti-X 293T cells; 50 nM abt,−24.16%
same,YFP fluorescence quenching using CNL001,"Lenti-X 293T cells; 100 nM CNL001, first column",9.332%
same,YFP fluorescence quenching using CNL001,"Lenti-X 293T cells; 100 nM CNL001, second column",18.218%
same,YFP fluorescence quenching using ABT-126,Lenti-X 293T cells; 100 nM abt,−24.7%
same,YFP fluorescence quenching using TC-5619/Bradanicline,Lenti-X 293T cells; 100 nM brd,72.105%
same,YFP fluorescence quenching using ABT-126,Lenti-X 293T cells; 300 nM abt,−16.09%
same,YFP fluorescence quenching using TC-5619/Bradanicline,Lenti-X 293T cells; 300 nM brd,71.411%
same,YFP fluorescence quenching using Varenicline,"Lenti-X 293T cells; 300 nM var, first column",16.83
same,YFP fluorescence quenching using Varenicline,"Lenti-X 293T cells; 300 nM var, second column",21.507
same,YFP fluorescence quenching using Varenicline,"Lenti-X 293T cells; 500 nM var, first column",21.586
same,YFP fluorescence quenching using Varenicline,"Lenti-X 293T cells; 500 nM var, second column",23.131
same,YFP fluorescence quenching using CNL001,"Lenti-X 293T cells; 1 uM CNL001, first column",35.294%
same,YFP fluorescence quenching using CNL001,"Lenti-X 293T cells; 1 uM CNL001, second column",36.542%
same,YFP fluorescence quenching using ABT-126,Lenti-X 293T cells; 1 uM abt,−11.61%
same,YFP fluorescence quenching using Varenicline,"Lenti-X 293T cells; 1 uM var, first column",31.591
same,YFP fluorescence quenching using Varenicline,"Lenti-X 293T cells; 1 uM var, second column",26.479
same,"percent quench of YFP fluorescence, 30 nM TC-6683",Lenti-X 293T cells; TC-6683 30 nM,1.735%
same,"percent quench of YFP fluorescence, 300 nM TC-6683",Lenti-X 293T cells; TC-6683 300 nM,0.642%
same,"percent quench of YFP fluorescence, 3 uM TC-6683",Lenti-X 293T cells; TC-6683 3 uM,2.403%
same,"percent quench of YFP fluorescence, 30 uM TC-6683",Lenti-X 293T cells; TC-6683 30 uM,6.006%
same,"percent quench of YFP fluorescence, 100 uM TC-6683",Lenti-X 293T cells; TC-6683 100 uM,−4.277%
same,"percent quench of YFP fluorescence, 10 uM ach",Lenti-X 293T cells; acetylcholine 10 uM,−2.52%
same,"percent quench of YFP fluorescence, 100 uM ach",Lenti-X 293T cells; acetylcholine 100 uM,−11.98%
same,"percent quench of YFP fluorescence, 300 uM ach",Lenti-X 293T cells; acetylcholine 300 uM,−16.71%
same,"percent quench of YFP fluorescence, 500 uM ach",Lenti-X 293T cells; acetylcholine 500 uM,−12.87%
same,"percent quench of YFP fluorescence, 1 mM ach",Lenti-X 293T cells; acetylcholine 1 mM,−14.41%
same,"percent quench of YFP fluorescence, 3 mM ach",Lenti-X 293T cells; acetylcholine 3 mM,−7.4%
same,"percent quench of YFP fluorescence, 10 mM ach",Lenti-X 293T cells; acetylcholine 10 mM,−1.5%
